Key:
[1] = Storage stability of lyophilized FGF-2 formulations by RP-HPLC (% main peak); assay type: physicochemical; settings: 0.35 and 3.5 mg/ml, 10 mM DTT, pH 6.0, storage at 30° C. for 1 year, FIG. 7
Protocol: Reversed Phase HPLC (RP-HPLC) was performed using a Waters 600S controller and a Waters 717 autosampler. Separations were accomplished on a Zorbax 300SB-CN, 4.6 mm ID×15 cm, 5:, cyano column with sample detection at 214 nm on a Waters 486 UV detector. Samples were run at 1.0 mL/min and injection volumes were 50 μL (˜15 μg of protein per injection).
rhFGF-2 was lyophilized using the following cycle: Vials were placed on pre-cool shelves set at 10° C. The shelf temperature was ramped at 40° C./hour to −50° C. where the vials were frozen for 2 hours. The temperature of the shelves was then ramped at 40° C. per hour to −25° C. and held for 2 hours to crystallize the glycine in the formulation. A vacuum of 50 μm was then initiated, and primary drying was accomplished over 32 hours. After primary drying was complete, the shelf temperature was ramped at 25° C./hour to 40° C. for 8 hours. The temperature was then reduced to 4° C. and the vials were stoppered and capped.
FGF-2 stability was examined in both liquid and lyophilized (freeze-dried) formulations using RP-HPLC. As in the previous study, liquid formulations were stored at 4° C., 17° C., and 30° C.
Lyophilized formulations were stored at 40° C. and 50° C. […]
Lyophilized formulations were stored for 12 months at 4° C., 25° C. and 30° C. Stability was monitored with a number of stability indicating assays. […]

[2] = Storage stability of liquid FGF-2 formulations by RP-HPLC (% main peak); assay type: physicochemical; settings: 0-10 mM DTT, FIGS. 1-3
Protocol: Reversed Phase HPLC (RP-HPLC) was performed using a Waters 600S controller and a Waters 717 autosampler. Separations were accomplished on a Zorbax 300SB-CN, 4.6 mm ID×15 cm, 5:, cyano column with sample detection at 214 nm on a Waters 486 UV detector. Samples were run at 1.0 mL/min and injection volumes were 50 μL (˜15 μg of protein per injection). […] Much of FGF-2 instability in pharmaceutical formulations can be attributed to oxidation. The stability of FGF-2 in different formulations can be quantitated by measuring the retention of the main peak using RP-HPLC. This main peak corresponds to the FGF-2 that remains in the reduced form. Using the analytical procedures described herein, the storage stability of FGF-2 under several conditions was followed by monitoring changes in the RP-HPLC main peak as a function of storage time at 4° C., 17° C., and 30° C. Experiments were conducted to determine the appropriate levels of dithiothreitol (DTT) required for maximum stability of FGF-2 formulations. Concentrations of DTT from 0 to 10 mM were examined in formulations between pH 5.5 and pH 6.5. In this example, all formulations were liquids and were produced from the same lot of bulk drug. Formulations were stored at 4° C., 17° C., and 30° C. […] Stability of the formulations was assessed by a number of assays. […]

Row | Molecule | degradation (RP-HPLC main peak) [1] | protection of FGF-2 from oxidation [2]
1 | rhFGF-2: recombinant human FGF-2 having the sequence set forth in SEQ ID NO:1 | little (if any) detectable degradation | –
2 | O[C@H](CS)[C@H](O)CS (racemic) [DTT, dithiothreitol] | – | protects FGF-2 from oxidation in a concentration-dependent manner

Reference: patent publication US7754686B2, “Stabilized FGF formulations containing reducing agents” (Novartis Vaccines and Diagnostics, Inc., priority 2000, dated 2010)
